One experiment has as its target HLA-A*23:01. The experiment can be described thus: IEDB peptide-MHC binding, purified MHC/competitive/radioactivity; filed as Kd, often an IC50 or EC50 that approximates it; ≥ and ≤ were set here for values at or beyond the usual limits of such assays.
For a further experiment, the target named is HLA-A*29:02. The experiment is described as above.
The target of a further experiment is HLA-A*30:02. The experiment is described as above.
A further experiment has as its target HLA-A*24:02. The experiment is described as above.
In the next experiment the target is HLA-A*26:01. The description is as above.
Another experiment concerns the target HLA-A*01:01. The experiment is described as above.
Experiment [1] addresses HLA-A*02:01. The experiment in a line: IEDB peptide-MHC binding, purified MHC/competitive/fluorescence; ≥ and ≤ were set here for values at or beyond the usual limits of such assays.
A further experiment addresses HLA-A*69:01. The experiment in a line: IEDB peptide-MHC binding, purified MHC/direct/fluorescence; filed as Kd, often an IC50 or EC50 that approximates it; ≥ and ≤ were set here for values at or beyond the usual limits of such assays.
Experiment [2] deals with HLA-A*02:01. The description is as above.
Another experiment addresses HLA-A*31:01. The experiment in a line: IEDB peptide-MHC binding, purified MHC/competitive/radioactivity; filed as Kd, often an IC50 or EC50 that approximates it; ≥ and ≤ were set here for values at or beyond the usual limits of such assays. Conditions: source organism: SARS coronavirus Tor2.
The next experiment concerns the target HLA-A*03:01. The experiment is described as above. As to conditions: source organism: SARS coronavirus Tor2.
The target of a further experiment is HLA-A*68:01. Described as above. As to conditions: source organism: SARS coronavirus Tor2.
For experiment [3], the target named is HLA-A*11:01. Described as above. As to conditions: source organism: SARS coronavirus Tor2.
In a further experiment the target is HLA-A*33:01. Described as above. As to conditions: source organism: SARS coronavirus Tor2.
The target of experiment [4] is HLA-A*11:01. The experiment can be described thus: IEDB peptide-MHC binding, purified MHC/direct/fluorescence; filed as Kd, often an IC50 or EC50 that approximates it; ≥ and ≤ were set here for values at or beyond the usual limits of such assays. Conditions: source organism: SARS-CoV1.
For the next experiment, the target named is HLA-B*07:02. Described as above. As to conditions: source organism: SARS-CoV1.
For the next experiment, the target named is HLA-B*15:01. The experiment is described as above. As to conditions: source organism: Rickettsia conorii.
Setting [5] is: source organism: Mammarenavirus machupoense.
Where [6] appears, read: source organism: Zaire ebolavirus.
[7] abbreviates: source organism: Vaccinia virus Copenhagen.
The mark [8] stands for this setting: source organism: SARS coronavirus Tor2.
[9] abbreviates: source organism: Vibrio vulnificus YJ016.
Setting [10] is: source organism: Mammarenavirus brazilense.
Setting [11] is: source organism: Lassa virus Josiah.
Where [12] appears, read: source organism: Rickettsia conorii.

On to LCEEGKVCY, for which the Kd with HLA-A*23:01 (setting [5]) was not below 31.6 µM; with HLA-A*29:02 (setting [5]), not below 45.4 µM; with HLA-A*30:02 (setting [5]) it was 14.2 µM; in the experiment with HLA-A*24:02 (setting [5]) it was not below 77.5 µM; with HLA-A*26:01 (setting [5]), not below 77.9 µM; in the experiment with HLA-A*01:01 (setting [5]), 7.83 µM.

In the case of LDISEATQV, the half-maximal inhibitory concentration (IC50) with HLA-A*02:01 [1] (setting [6]) is not below 72.6 µM.

For NCSSISIKL, in the experiment with HLA-A*02:01 [1] (setting [7]), the concentration for half-maximal inhibition (IC50) was not below 437 µM.

Take PVSAMVRMY: the Kd was not below 39.2 µM with HLA-A*23:01 (setting [8]); 2.73 µM in the experiment with HLA-A*29:02 (setting [8]); 9.13 µM with HLA-A*30:02 (setting [8]); not below 40.9 µM in the experiment with HLA-A*24:02 (setting [8]); not below 36.7 µM in the experiment with HLA-A*26:01 (setting [8]); 11.4 µM with HLA-A*01:01 (setting [8]).

Regarding QFLLQLNET, the IC50 in the experiment with HLA-A*02:01 [1] (setting [6]) is 16.1 µM. This counts as double-digit micromolar.

RGVNFAEGV returned a concentration for half-maximal inhibition (IC50) in the experiment with HLA-A*02:01 [1] (source organism: Sudan ebolavirus) of 32.9 µM.

Turning to RVRFFFPSL, in the experiment with HLA-A*02:01 [1] (source organism: Homo sapiens), the IC50 was not below 200 µM.

As to SLGGHTVWQ, the Kd is not below 20 µM in the experiment with HLA-A*69:01 (setting [9]) and 8 µM with HLA-A*02:01 [2] (setting [9]).

SNAKCIEYV showed an IC50 in the experiment with HLA-A*02:01 [1] (setting [7]) of 53.6 µM.

As for STGNYNYKY, the Kd was not below 77.9 µM in the experiment with HLA-A*31:01; not below 77.8 µM in the experiment with HLA-A*23:01 (setting [8]); 0.0372 µM in the experiment with HLA-A*29:02 (setting [8]); 0.0245 µM with HLA-A*30:02 (setting [8]); not below 77.6 µM in the experiment with HLA-A*24:02 (setting [8]); 15.6 µM in the experiment with HLA-A*26:01 (setting [8]). The equilibrium dissociation constant (Kd) in the experiment with HLA-A*01:01 (setting [8]) was 0.388 µM; with HLA-A*03:01 it was not below 20.4 µM; with HLA-A*68:01, 1.6 µM; with HLA-A*11:01 [3], 0.198 µM; with HLA-A*33:01, not below 77.7 µM.

In the case of TERSASGGVY, the Kd in the experiment with HLA-A*23:01 (setting [10]) was not below 44.9 µM; in the experiment with HLA-A*29:02 (setting [10]) it was not below 55.5 µM; in the experiment with HLA-A*30:02 (setting [10]), 1.01 µM; with HLA-A*24:02 (setting [10]), not below 70.3 µM; in the experiment with HLA-A*26:01 (setting [10]) it was not below 54.6 µM; in the experiment with HLA-A*01:01 (setting [10]), 1.71 µM.

Consider TGPCAGDFA, for which, in the experiment with HLA-A*02:01 [1] (setting [6]), the IC50 is not below 112 µM.

As to TLVGVVVST, the IC50 with HLA-A*02:01 [1] (source organism: Vaccinia virus) was determined as 55.4 µM.

As for TPSGTWLTY, the Kd was 4.57 µM with HLA-A*11:01 [4]; 7.02 µM with HLA-B*07:02; not below 77.8 µM with HLA-A*23:01 (setting [8]); 0.0555 µM with HLA-A*29:02 (setting [8]); 11.8 µM with HLA-A*30:02 (setting [8]); not below 77.6 µM with HLA-A*24:02 (setting [8]). The equilibrium dissociation constant (Kd) in the experiment with HLA-A*26:01 (setting [8]) was 18.6 µM; with HLA-A*01:01 (setting [8]), not below 79.4 µM.

For the sequence TTTIKPVSY, the Kd in the experiment with HLA-A*23:01 (setting [8]) is not below 77.8 µM; in the experiment with HLA-A*29:02 (setting [8]), 0.0473 µM; with HLA-A*30:02 (setting [8]) it was 0.142 µM; with HLA-A*24:02 (setting [8]), not below 77.6 µM; with HLA-A*26:01 (setting [8]), 0.36 µM; in the experiment with HLA-A*01:01 (setting [8]), 0.286 µM.

Consider TVATSRTLSY, for which the Kd in the experiment with HLA-A*23:01 (setting [8]) is not below 70 µM; with HLA-A*29:02 (setting [8]), 0.1 µM; with HLA-A*30:02 (setting [8]), 0.822 µM; with HLA-A*24:02 (setting [8]), not below 70.3 µM; with HLA-A*26:01 (setting [8]), 0.0779 µM; with HLA-A*01:01 (setting [8]) it was 0.341 µM.

Regarding VAEMDGIQY, the Kd was not below 77.8 µM with HLA-A*23:01 (setting [8]); 0.0583 µM with HLA-A*29:02 (setting [8]); 0.0195 µM with HLA-A*30:02 (setting [8]); not below 77.6 µM with HLA-A*24:02 (setting [8]); 1.27 µM with HLA-A*26:01 (setting [8]); 0.0308 µM with HLA-A*01:01 (setting [8]).

Sequence VNPGTYVYF registered a half-maximal inhibitory concentration (IC50) in the experiment with HLA-A*02:01 [1] (source organism: Variola virus) not below 186 µM.

As to VYMPASWVM, the Kd with HLA-A*23:01 (setting [8]) is 5.42 µM; with HLA-A*29:02 (setting [8]), 14.7 µM; with HLA-A*30:02 (setting [8]), not below 20.9 µM; with HLA-A*24:02 (setting [8]), 12.6 µM; with HLA-A*26:01 (setting [8]) it was not below 77.9 µM; with HLA-A*01:01 (setting [8]), not below 78.1 µM.

Turning to VYSDVETPHL, the Kd with HLA-A*23:01 (setting [8]) is 0.163 µM; with HLA-A*29:02 (setting [8]), 0.589 µM; with HLA-A*30:02 (setting [8]), 16.1 µM; with HLA-A*24:02 (setting [8]) it was 0.245 µM; in the experiment with HLA-A*26:01 (setting [8]), not below 69.7 µM; with HLA-A*01:01 (setting [8]), 0.303 µM.

Turning to YCNYSKYWYL, the Kd is 1.15 µM in the experiment with HLA-A*23:01 (setting [11]); 10.8 µM with HLA-A*29:02 (setting [11]); not below 22.7 µM in the experiment with HLA-A*30:02 (setting [11]); 4.44 µM with HLA-A*24:02 (setting [11]); not below 69.7 µM in the experiment with HLA-A*26:01 (setting [11]); 9.73 µM with HLA-A*01:01 (setting [11]).

With YFSDVSAPV, the values for the dissociation constant Kd with HLA-B*15:01, with HLA-A*69:01 (setting [12]) and with HLA-A*02:01 [2] (setting [12]) were 0.705 µM, 0.041 µM and 0.0279 µM, respectively.

What is called Kd is a measure of binding affinity in units of concentration. For orientation: IC50 means the midpoint of a concentration-inhibition curve. A low value points to inhibition by little substance.

(Values after the Immune Epitope Database (IEDB).)
